Laboratory results taken from the DeepSol protein solubility set.

Experiment: soluble on expression in E. coli; label from the status in PepcDB or PDB records

| Sequence | soluble on expression in E. coli |
| --- | --- |
| MSKLSIRNLTKIFGPHPEKALGLLEQGLGKEEIHRRTSHAVGVDRASFDVEEGEIVVVMGLSGSGKSTLVRCLNRLIEPTAGTVTVDGRDVTSMPVDELRRLRQRSFGMVFQNFALFPHRTVLQNAAFGLEAMGVPRAERERQAMVSLERVGLAEWAASRPAQLSGGMQQRVGLARALSLDPDILLMDEAFSALDPLIRRDMQDELLRLQDDLQKTIVFISHDLDEALKLGDRIVLMRDGAVVQIGTPEDILTNPADDYVARFVGEADVTKVLTAGSVMKRSEAVAVLGIDGPRTALRKMRRNAIATLFVLDERHRLVGLITADDAARLAAEGVRELGSIVRRDIATVPPEAPATELISLMADLPHPLAVVDERGRLAGVIVRGLLLGALAERGGVALEHHHHHH | not soluble |
| MHSGDFMSVSTPTRDDFAALLEESFASNDLAEGYVAKGIVTAIEKDVAIVDVGLKVEGRVPLKEFGAKSKDGTLKVGDEVEVYVERIENALGEAVLSREKARREESWVKLEAKFEAGERVEGVIFNQVKGGFTVDLDGAVAFLPRSQVDIRPIRDVTPLMHNPQPFEILKMDKRRGNIVVSRRTVLEESRAEQRSEIVQNLEEGQVVDGVVKNITDYGAFVDLGGIDGLLHVTDMAWRRVNHPSEILNIGQQVKVQIIRINQETHRISLGMKQLESDPWDGISAKYPVGKKISGTVTNITDYGAFVELEPGIEGLIHISEMSWTKKNVHPGKILSTSQEVDVVVLEVDPSKRRISLGLKQTLENPWQAFAFSHPAGTEVEGEVKNKTEFGLFIGLEGDVDGMVHLSDLDWNRPGEQVIEEFNKGDVVKAVVLDVDVEKERISLGIKQLGKDAVGEAATSGDLRKNAVVSCEVIAVNDGGVEVKLVNHEDITSFIRRNDLARDRDDQRPERFAVGQVFDARVVNFSKKDRKVMLSIKALEIAEEKEAVAQFGSSDSGASLGDILGAALKNRGELEHHHHHH | soluble |
| MLNLFRNRKRNGAGPTIKKAQKMPELDDFLSNQDYEGAISLLNHKLKAGNLDREEEDSLQLWLAHCYYRLRNYEEAANVYTFLMNKDDAPAELGVYLACCKFYLKQYIEAKSIAEKCPKTPLCIRLMMNVSLRLNDEKRILTFHSSLGDTLEDRLSLAGVNYSRMHYQDAIEVYTSVLQTSPNLIGLNVNMALCYAKMDYPHVAYNLIKNYLRNFPNSPFAKNLLLSVLYRTITSKTTVDEKSELARNIDQEGLTMVSDMEALLKQKLYPEIEYICKHNLVLFKNCETALQVLPSLMKHIPEARVNLILYHLNKNNVKDAISLCKDFDPVTPYEFLVKALTFLRHGQETNSREHLKIAENFFQMVGESGLVQDTIAGRQSSAAYLFLSFKFDDVITYLKSIEAYFTNNDDFLLNLAQAYLMYKNYVAAEKLFIRVSGPERDKILYKSMLARCYVRNKKPQSAWDMMLKTNNPSDRMSLLKVIAQDCYIANEFYYASKAFHEIEISDPTTENWSGKRGACAGLFRQLANHKTDPILISQMREVVHLVAMKPHSNCEFLLKVVRNWAETHNVNIIN | not soluble |
| MGSDKIHHHHHHMKKAVLIVNPSSGGEKAKEFETLAEEKLKQLFDEVVVKQTEKGGDAEQFAREAAESHFDSVFVMGGDGTVNEGISGLAEQAYRPKFGFFPLGTVNDLARALNLPMDPEEAIQQLDLEKTSALDVGKINDDYFMNVVAIGTIPESINDVDVEQKTKLGKLAYFISGAKHLANAQTYPFHLSLDQKEQTIESSTVLVGLTNSIGGFETLLPEAQVDDGKLHLVYLKDQSLWDAVKAVPDLLKGVDQSTDNLVYLTFKEGTISLENQEELTTNVDGDEGAALPITLKILPKHLTVYCGEEQTK | not soluble |
| MGSSHHHHHHSSGLVPRGSHMTVYTASVTAPVNIATLKYWGKRDTKLNLPTNSSISVTLSQDDLRTLTSAATAPEFERDTLWLNGEPHSIDNERTQNCLRDLRQLRKEMESKDASLPTLSQWKLHIVSENNFPTAAGLASSAAGFAALVSAIAKLYQLPQSTSEISRIARKGSGSACRSLFGGYVAWEMGKAEDGHDSMAVQIADSSDWPQMKACVLVVSDIKKDVSSTQGMQLTVATSELFKERIEHVVPKRFEVMRKAIVEKDFATFAKETMMDSNSFHATCLDSFPPIFYMNDTSKRIISWCHTINQFYGETIVAYTFDAGPNAVLYYLAENESKLFAFIYKLFGSVPGWDKKFTTEQLEAFNHQFESSNFTARELDLELQKDVARVILTQVGSGPQETNESLIDAKTGLPKE | soluble |
| MLIREIEKKDNEQVETLIRTCLIEFGADKPGCAWTDPDLGRFYEIYQDKKSKYWVVEEEGKIIAGCGIGPLNGAENVCELQKMYSYKEARGTGIAKDLLGLALDFAKKYYDKCYLETFSNMTAANKFYVKNGFKKLEKPLIETDHYACDVWYIKEL | not soluble |
| SFAAIASGNPLQLSVEVPNSNGLQHTIVLSRTKPKLYSHITLFILPNVTFPQDYIATVYFKLSPQEEFKLFGYLSSEKPSAIFKVQIPSSKKDAGDTSDGLGEIDMDVDDGSGAADPFTDTNGSSSNNISELIIGISIEPREQGMMKLEEWKASMNAEAQKNNSLILSRPNLGIIRNITTAGQLAQVYPSLTQELAAKIVQHAYNYLSGFLDAQGNVPIKRFDTWWDKFRNRLANDGTFLDEVTKN | soluble |
| MKIFIVGSTGRVGKSLLKSLSTTDYQIYAGARKVEQVPQYNNVKAVHFDVDWTPEEMAKQLHGMDAIINVSGSGGKSLLKVDLYGAVKLMQAAEKAEVKRFILLSTIFSLQPEKWIGAGFDALKDYYIAKHFADLYLTKETNLDYTIIQPGALTEEEATGLIDINDEVSASNTIGDVADTIKELVMTDHSIGKVISMHNGKTAIKEALESLLEHHHHHH | soluble |
| MGSDKIHHHHHHMKMCYNEKRKNMTLRHPGISPTNDSVAKKIFSNPEITWQFIRDMLDLPAKNVTILEGSNIHVLPSLPYSAQDFYTSINVLAELDNGTQVIIEIQVHHQNFFINRLWAYLCSQVNQNLEKIRQREGDTHQSYKHIAPVYAIAIVNSNYFQDDLAFHSFSMREDTTGEALTITNNSQENHLVKMAFLELKKYRETSKDKIRKPWLEFFGNKPFTQQPERAISQAYQLLDYKSWSEEDRKMFSEQRRREEQALLAQDYALEQAEEKGLERGKVEGREEGKLFAFLDMVRQGLLTSEVASQQLGMTVAEFEALL | not soluble |
| MQDADKLPHTKVTLVAPPQVHPHEQATKSGPKVVEFTMTIEEKKMVIDDKGTTLQAMTFNGSMPGPTLVVHEGDYVQLTLVNPATNAMPHNVDFHGATGALGGAKLTNVNPGEQATLRFKADRSGTFVYHCAPEGMVPWHVVSGMSGTLMVLPRDGLKDPQGKPLHYDRAYTIGEFDLYIPKGPDGKYKDYATLAESYGDTVQVMRTLTPSHIVFNGKVGALTGANALTAKVGETVLLIHSQANRDTRPHLIGGHGDWVWETGKFANPPQRDLETWFIRGGSAGAALYTFKQPGVYAYLNHNLIEAFELGAAGHIKVEGKWNDDLMKQIKAPAPIPR | soluble |
| MFEIATTPMATTVVISGDLDLASRDQFLEVAARLTSLRRSLLTIDMCDVRFMDSTGAAFLISLAETGQRRGWLTVLRGSSDAHRFVLDICGATHLFRFDTEHYCHHTASPA | not soluble |
| MGSDKIHHHHHHMTEITTLSQFLTTAKTQFQVYELGRRVQHIDMLAFHQIESLVTPYPYPIQGHAQFAVVFWNESQQHFIWFLKLPLDEQGLLSPAPRSQFIEMVLTALGQDPTQPLTDEQQDRLANNPFSFKPSQEKLSVFNALVRKQLGLSASIQYEFAMQYLSGQIAPSEWQHIGMQGLSDVCVRLGELDHEQHILASFDQAAIEVQIALCQCLEHLQLTEAIAMKIFSKFITAPNEYQAYYLRALASQTELSQQALLHLQQTDRLDANALISIAGRNWPILKQALSRSIYLEALALQPQAFFNQIFADIVAIPNLRNHLLGELRNPNRSVQLSQAIGGLFKAASK | not soluble |
| MTSRGITSLSNHLIPLSFPARLRIDQADKQAQAGLMKDHAQHTANIGKFQDSFVTADGQARASVPLSRPETLWFNTGTLCNIECANCYILSSPKNDALVYLSADEVSAYLDQIAARGWPVHEIGFTGGEPFMNPQIIAMSRTALERGFEVLILTNAMRPMMRKTMRLGVAALVRDFGDRLTLRVSVDHHSAACHDAERGAGSFARTLAGMVWLRDCGARMTVAGRTVWGESEAEARAGYAALYAEYGFAIDAFDPGQTVLFPEMDERVEVPEITTACWDILGKSPETVMCASSRMVVKRKGAAHPVVLACTLLPYAPEFELGQTLAEAERPVQLNHPHCAKFCVLGGASCSA | not soluble |
| MGSDKIHHHHHHMAFFGYKDIDKLSGVDLAIYRFIVEHDEQIPYMRVRELARGAHVSNSSVMRFIRKIGYDSFPEFKVSLRSETPIQKPDAPGIQFVQPSAFPADITKIIRLAAQLMVNADNIVFVGIGASAALGEYASRQTSSLGFNSYVVKDPFYPLLPQLRNTSNNVLVAVSVSGQTSELVEMLNDFVNNPEVNIISITSNLESTIARMSRYALTYRATEERIHQYYDLTSQVPCLYIIEALLRELRHQEVVQHRFE | not soluble |
| MPSVKIGIIGAGSAVFSLRLVSDLCKTPGLSGSTVTLMDIDEERLDAILTIAKKYVEEVGADLKFEKTMNLDDVIIDADFVINTAMVGGHTYLEKVRQIGEKYGYYRGIDAQEFNMVSDYYTFSNYNQLKYFVDIARKIEKLSPKAWYLQAANPIFEGTTLVTRTVPIKAVGFCHGHYGVMEIVEKLGLEEEKVDWQVAGVNHGIWLNRFRYNGGNAYPLLDKWIEEKSKDWKPENPFNDQLSPAAIDMYRFYGVMPIGDTVRNSSWRYHRDLETKKKWYGEPWGGADSEIGWKWYQDTLGKVTEITKKVAKFIKENPSVRLSDLGSVLGKDLSEKQFVLEVEKILDPERKSGEQHIPFIDALLNDNKARFVVNIPNKGIIHGIDDDVVVEVPALVDKNGIHPEKIEPPLPDRVVKYYLRPRIMRMEMALEAFLTGDIRIIKELLYRDPRTKSDEQVEKVIEEILALPENEEMRKHYLKR | soluble |
| GPGSMTDALAKPIRVCVLACSYEGSDSELRAYEGDLIQTPQNYFCSEDAQCTFHLELIKKATAYRQIRQLVMSGKFDVFYNQCDGAKDEDRAGVEVVEALEEFKVPYTGAISKYYEMSKPDMKLVAYYYNIATANYIVLAPGDDIESLCGDLQFPCIIKHISGYSSVGMDKSCKVYDMAHLVDRAARFMAEYQFALVEEFVNGDEATILACSDSTQPEGVRVFPPVQVAFPEGEDFKHFQLKWASYEGMKWTQVPQEDPAMQNMIDIARSAFKRMMGGVGYGRIDVRIDRQKNHKVVFLEINPNCGIMYPYGQEGSADWILRLNRGFQQREFAMLQIREAITRCQRERLLYVRRFDPVRGYHLRAAEDISVGTIIFQDECRPVRLCTKPYALQHFSKADYVDFQHNAWPVGRDGHYYALWDHDPAQWRAFNHSCEPNMSFAPMRSLDVVALRNIPKGEELTMDYRQFMDSTMPGFQCNCGTEKCEGFVSPGSLVDSPTAKIASQPTVALRHNIAVRLNPI | soluble |
| MNEILKCIGCGAPLQSENKDAPGYVPEHNMFREDVICRRCFRLKNYNEVQDVGMESEDFLNLLTGLSEKKGIIVNVVDVFDFEGSFINAIQRIVGNKKIILVANKIDLLPKQINHRRVKEWLRKSARKYGLEAEDVVLISANKGWGIDELLQSINHVRNKDDVYIVGTTNVGKSTLINKLIEQSVGEKDVVTTSRFPGTTLDMIDIPLDEKSFMFDTPGIIQSHQMTNYVSENELKIIIPKNEIKQRVYQLNEKQTLFFGGLARIDYVSGGKRPLVCFFSNDLNIHRTKTEKANDLWKSQLGALLSPPQDAQQFNLNDVKAVRLETGKTKRDIMISGLGFITIDAGAKVIVRVPKHVDVILRNSILLEHHHHHH | soluble |
| GSHMAEPQRHKILCVCCKCDGRIELTVESSAEDLRTLQQLFLSTLSFVCPWCATNQ | soluble |
| CHQDCPQMSPQPEMDRFASEFGEQDVAVDGQAPENALENDEPKYAPQVISEQNAFLMREMMYSNIWGGGNWREGTGWNGTGWRAQKLERRDIGGKTGTTNDSKDA | not soluble |
| MGAKDKATGKSWSDVQQRLQQFHSQEFLNSLRGTTQFAGTDYRSKDLTPKKSRLLADTISAVYLDGYES | not soluble |
